How the values were obtained:
[1] = target: T1, recombinant ScExg1 (rScExg1), Exg1p of Saccharomyces cerevisiae (Saccharomyces cerevisiae, UniProt P23776); assay: Enzyme kinetics of recombinant ScExg1 on oNPG and pNPG substrates (β-glucosidase activity); assay type: biochemical; conditions: pNP/oNP release at 405 nm
T1 sequence (P23776 41-448): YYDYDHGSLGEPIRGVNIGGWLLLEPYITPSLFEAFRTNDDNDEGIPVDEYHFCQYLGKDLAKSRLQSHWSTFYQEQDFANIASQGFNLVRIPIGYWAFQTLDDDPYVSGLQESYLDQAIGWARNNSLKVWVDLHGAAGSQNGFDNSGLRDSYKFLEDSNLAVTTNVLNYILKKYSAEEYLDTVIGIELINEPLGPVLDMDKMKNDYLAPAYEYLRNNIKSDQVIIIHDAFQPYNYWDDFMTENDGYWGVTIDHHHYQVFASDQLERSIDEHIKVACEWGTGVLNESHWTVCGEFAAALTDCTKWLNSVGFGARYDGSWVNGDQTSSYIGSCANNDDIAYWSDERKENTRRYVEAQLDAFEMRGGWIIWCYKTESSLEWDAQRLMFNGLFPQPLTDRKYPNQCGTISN
Experimental: The optimal conditions for β-glucosidase activity were determined. The optimum pH was obtained by monitoring enzyme activity at a range of pH levels (from pH 3 to pH 9) in the reaction buffer. Incubation was carried out at 60° C. for 30 min. To analyze enzyme stability, the same buffer system and pH range were used, however, the reactions were performed at 4° C. for 1 h. The optimum temperature was determined in 20 mM acetate buffer at pH 5 in a range of temperatures from 20° C. to 90° C. For temperature stability analysis, β-glucosidase was extracted and activity was monitored following 1 h incubation in 20 mM acetate buffer, pH 5. […] The f-glucosidase activity was determined by measuring the levels of p-nitrophenol (pNP) or o-nitrophenol (oNP) released from pNPG or oNPG after the glucose was hydrolyzed by glucosidase. The released pNP or oNP was detected at a wavelength of 405 nm and calibrated with standard curves. […]
(§1) To evaluate the preferred pH, preferred temperature and hydrolyzing capability of rDbExg1, we used pNPG substrates and compared the results with ScExg1. rDbExg1 retained half of its activity over a pH range of 3.0 to 7.0 and was stable at pH 5.0-7.0. […] The Michaelis constant (Km) and maximum velocity (Vmax) of rDbExg1 and rScExg1 were also compared and calculated (Table 3). […]

[2] = relative to 5% sucrose in water; cited from earlier work
[3] = substrate: O=[N+]([O-])c1ccccc1O[C@@H]1O[C@H](CO)[C@@H](O)[C@H](O)[C@H]1O; assay: purified protein, by the assay type; conditions: other: rDbExg1, substrate 10 mM, acetate buffer, pH 5, 60° C., pNP/oNP release at 405 nm
[4] = substrate: O=[N+]([O-])c1ccc(O[C@@H]2O[C@H](CO)[C@@H](O)[C@H](O)[C@H]2O)cc1; assay: Enzyme kinetics of recombinant DbExg1 on oNPG and pNPG substrates (β-glucosidase activity); assay type: biochemical, Dekkera bruxellensis; conditions: other: rDbExg1, substrate 10 mM, acetate buffer, pH 5, 60° C., pNP/oNP release at 405 nm
From the text: Exg1-like β-glucosidase from Dekkera bruxellensis (DbExg1) was cloned with the Gateway cloning system. Briefly, the coding region of DbExg1 was first amplified by PCR. The forward primer was
underline indicates gene coding region). Genomic DNA extracted from D. bruxellensis was used as the template. Yeast expression vectors (pYES-DEST52) were further introduced to generate galactose-inducible plasmids carrying the correct DbExg1 sequence. The yeast vectors were then amplified and transformed into Exg1-deleted S. cerevisiae (exg1Δ mutants) for the galactose-induced DbExg1 protein expression assay. DbExg1 gene was also integrated into (exg1Δ mutants) with a GPD promoter. For protein purification, the culture media was concentrated with a 30 kDa MWCO (molecular weight cutoff) ultrafiltration membrane (Vivaspin 20, GE Co., Taipei, Taiwan). The extracellular protein concentrates were purified by Ni^2+-affinity chromatography. Protein homogeneity in each fraction was assessed by SDS-PAGE and silver staining.
The optimal conditions for β-glucosidase activity were determined. The optimum pH was obtained by monitoring enzyme activity at a range of pH levels (from pH 3 to pH 9) in the reaction buffer. Incubation was carried out at 60° C. for 30 min. To analyze enzyme stability, the same buffer system and pH range were used, however, the reactions were performed at 4° C. for 1 h. The optimum temperature was determined in 20 mM acetate buffer at pH 5 in a range of temperatures from 20° C. to 90° C. For temperature stability analysis, β-glucosidase was extracted and activity was monitored following 1 h incubation in 20 mM acetate buffer, pH 5. […] The enzyme and substrate mixture were incubated under optimum enzymatic reactions conditions of 60° C., pH 5. The f-glucosidase activity was determined by measuring the levels of p-nitrophenol (pNP) or o-nitrophenol (oNP) released from pNPG or oNPG after the glucose was hydrolyzed by glucosidase. The released pNP or oNP was detected at a wavelength of 405 nm and calibrated with standard curves. Mogroside conversion was stopped by the addition of one volume of pure methanol at specific time points. The converted products were then purified for HPLC-MS/MS analysis. […]
as §1

[5] = β-Glucosidase activity, pH and temperature optimum and stability of recombinant Exg1 proteins on pNPG; assay type: biochemical
Experimental: (§2) The optimal conditions for β-glucosidase activity were determined. The optimum pH was obtained by monitoring enzyme activity at a range of pH levels (from pH 3 to pH 9) in the reaction buffer. Incubation was carried out at 60° C. for 30 min. To analyze enzyme stability, the same buffer system and pH range were used, however, the reactions were performed at 4° C. for 1 h. The optimum temperature was determined in 20 mM acetate buffer at pH 5 in a range of temperatures from 20° C. to 90° C. For temperature stability analysis, β-glucosidase was extracted and activity was monitored following 1 h incubation in 20 mM acetate buffer, pH 5. […] The enzyme and substrate mixture were incubated under optimum enzymatic reactions conditions of 60° C., pH 5. The f-glucosidase activity was determined by measuring the levels of p-nitrophenol (pNP) or o-nitrophenol (oNP) released from pNPG or oNPG after the glucose was hydrolyzed by glucosidase. The released pNP or oNP was detected at a wavelength of 405 nm and calibrated with standard curves. Mogroside conversion was stopped by the addition of one volume of pure methanol at specific time points. The converted products were then purified for HPLC-MS/MS analysis.

[6] = substrate: O=[N+]([O-])c1ccc(O[C@@H]2O[C@H](CO)[C@@H](O)[C@H](O)[C@H]2O)cc1; assay: Enzyme kinetics of recombinant ScExg1 on oNPG and pNPG substrates (β-glucosidase activity); assay type: biochemical, Saccharomyces cerevisiae; conditions: other: rScExg1; pNP/oNP release at 405 nm
Experimental: as §2
(§3) Because mogrosides are known to be hydrolyzed by Exg1p in S. cerevisiae (ScExg1), we hypothesized that an Exg1-like glucan-β-glucosidase in D. bruxellensis (DbExg1) might be responsible for the observed mogroside conversion. To test this hypothesis, DbExg1 was cloned with a galactose-induced promoter sequence and six-histidine tag (6×His) at the C-terminus of the gene. The plasmids were transformed and expressed in S. cerevisiae as previously described. […] The recombinant DbExg1 (termed rDbExg1) was purified by Ni^2+-affinity chromatography (data not shown).
(§4) To evaluate the preferred pH, preferred temperature and hydrolyzing capability of rDbExg1, we used pNPG substrates and compared the results with ScExg1. rDbExg1 retained half of its activity over a pH range of 3.0 to 7.0 and was stable at pH 5.0-7.0. The optimum pH was 5.0 in a sodium phosphate buffer system (FIG. 3C). […] The optimum temperature for rDbExg1 was 60° C. However, the enzyme only retained 40% of its activity after incubation at 60° C. for 30 min. […] (FIG. 3B). Both ScExg1 and rDbExg1 were stable at temperatures below 50° C. (FIGS. 3B and D). The Michaelis constant (Km) and maximum velocity (Vmax) of rDbExg1 and rScExg1 were also compared and calculated (Table 3).
(§5) Table 3: Kinetic parameters of recombinant DbExg1 and ScExg1 proteins on oNPG and pNPG substrates (4) Enzymatic Hydrolysis of Mogrosides

[7] = substrate: O=[N+]([O-])c1ccccc1O[C@@H]1O[C@H](CO)[C@@H](O)[C@H](O)[C@H]1O; assay: as above; assay type: biochemical, Saccharomyces cerevisiae; conditions: other: rScExg1; pNP/oNP release at 405 nm
Experimental: as §2, §3, §4, §5

## O=[N+]([O-])c1ccccc1O[C@@H]1O[C@H](CO)[C@@H](O)[C@H](O)[C@H]1O [o NPG, o-nitrophenol β-D-glucoside]
[1]
  Kcat: 0.458 ± 0.012 s⁻¹
  Vmax: 9.16 ± 0.247 µmol/min/mg

## C[C@H](CC[C@@H](O[C@@H]1O[C@H](CO)[C@@H](O)[C@H](O)[C@H]1O[C@@H]1O[C@H](CO)[C@@H](O)[C@H](O)[C@H]1O)C(C)(C)O)[C@H]1CC[C@@]2(C)[C@H]3CC=C4[C@@H](CC[C@H](O[C@@H]5O[C@H](CO[C@@H]6O[C@H](CO)[C@@H](O)[C@H](O)[C@H]6O)[C@@H](O)[C@H](O)[C@H]5O)C4(C)C)[C@]3(C)[C@H](O)C[C@]12C [MG IV, mogroside IV]
[2]
  times sweeter than 5% sucrose: 465 times

## C[C@H](CC[C@@H](O[C@@H]1O[C@H](CO[C@@H]2O[C@H](CO)[C@@H](O)[C@H](O)[C@H]2O)[C@@H](O)[C@H](O)[C@H]1O[C@@H]1O[C@H](CO)[C@@H](O)[C@H](O)[C@H]1O)C(C)(C)O)[C@H]1CC[C@@]2(C)[C@@H]3CC=C4[C@@H](CC[C@H](O[C@@H]5O[C@H](CO[C@@H]6O[C@H](CO)[C@@H](O)[C@H](O)[C@H]6O)[C@@H](O)[C@H](O)[C@H]5O)C4(C)C)[C@]3(C)[C@H](O)C[C@]12C [MG V, mogroside V]
[2]
  times sweeter than 5% sucrose: 392 times

## C[C@H](CC[C@@H](O[C@@H]1O[C@H](CO[C@@H]2O[C@H](CO)[C@@H](O)[C@H](O)[C@H]2O)[C@@H](O)[C@H](O)[C@H]1O[C@@H]1O[C@H](CO)[C@@H](O)[C@H](O)[C@H]1O)C(C)(C)O)[C@H]1CC[C@@]2(C)[C@@H]3CC=C4[C@@H](CC[C@H](O[C@@H]5O[C@H](CO)[C@@H](O)[C@H](O)[C@H]5O)C4(C)C)[C@]3(C)[C@H](O)C[C@]12C [SI, siamenoside I]
[2]
  times sweeter than 5% sucrose: 563 times

## C[C@H](CC[C@@H](O[C@@H]1O[C@H](CO)[C@@H](O)[C@H](O)[C@H]1O[C@@H]1O[C@H](CO)[C@@H](O)[C@H](O)[C@H]1O)C(C)(C)O)[C@H]1CC[C@@]2(C)[C@@H]3CC=C4[C@@H](CC[C@H](O[C@@H]5O[C@H](CO)[C@@H](O)[C@H](O)[C@H]5O)C4(C)C)[C@]3(C)[C@H](O)C[C@]12C [MG IIIE, mogroside III E]
[2]
  times sweeter than 5% sucrose: less sweet

B1: recombinant DbExg1 (rDbExg1), Exg1-like β-glucosidase from Dekkera bruxellensis, C-terminal 6xHis (Brettanomyces bruxellensis) (protein)
chain: APIILKKRDWDYTKDKIHGVNIGGWLVLEPYITPSLFETFGDDAPVDEYHYTQQLGKEEASKRLQEHWANWITEKDFEYIANLGLNMVRIPIGYWAFELQDNDPYVQGQQAYLDKALGWAEKNGLKVWIDLHGVPGSQNGFDNSGLRDQIDWQTGSGNVDFTLNVLKEMIEKYSDSDYSDTIIGIELLNEPLGSSLNMDELKVFYSSGYELVRDQDASVPVIIQDAFQSDYYWDDFLNTEQDTNIYGVVVDHHHYQVFSTGELQRDMDTRIQTACNWGKQEGGEYHWNVCGEFSAALTDCAKWLNGLGRGARYDSSYGGGAYVGSCDDLYTYDEDYWNNSDVIKQYRQYVEAQMDAFENGKMGGWVFWCWKTESAVEWDFQRLAGLNVIPQPLDDRLYPNQCSF
[3]
  Km: 781 ± 4 µM
  Vmax: 10.4 µmol/min/mg
  kcat: 0.518 s⁻¹
  kcat/Km: 663 M⁻¹ s⁻¹
[4]
  Km: 734 ± 2 µM
  Vmax: 9.27 µmol/min/mg
  kcat: 0.464 ± 0.006 s⁻¹
  kcat/Km: 632 ± 7 M⁻¹ s⁻¹

B2: recombinant ScExg1 (rScExg1), Exg1p of Saccharomyces cerevisiae (Saccharomyces cerevisiae S288C) (protein)
chain: YYDYDHGSLGEPIRGVNIGGWLLLEPYITPSLFEAFRTNDDNDEGIPVDEYHFCQYLGKDLAKSRLQSHWSTFYQEQDFANIASQGFNLVRIPIGYWAFQTLDDDPYVSGLQESYLDQAIGWARNNSLKVWVDLHGAAGSQNGFDNSGLRDSYKFLEDSNLAVTTNVLNYILKKYSAEEYLDTVIGIELINEPLGPVLDMDKMKNDYLAPAYEYLRNNIKSDQVIIIHDAFQPYNYWDDFMTENDGYWGVTIDHHHYQVFASDQLERSIDEHIKVACEWGTGVLNESHWTVCGEFAAALTDCTKWLNSVGFGARYDGSWVNGDQTSSYIGSCANNDDIAYWSDERKENTRRYVEAQLDAFEMRGGWIIWCYKTESSLEWDAQRLMFNGLFPQPLTDRKYPNQCGTISN
[5]
  optimum temperature: 50 °C
[6]
  Km: 865 ± 3 µM
  Vmax: 11.7 µmol/min/mg
  kcat: 0.587 ± 0.018 s⁻¹
  kcat/Km: 679 ± 5 M⁻¹ s⁻¹
[7]
  Km: 840 ± 42 µM

Reference: US11180789B2, “Method for bioconversion of mogroside extracts into siamenoside I” (National Taiwan University, priority 2019, dated 2021)
